B1: SRP1848-G04 (antibody, V domains shown)
VH: EVQLVESGGGLVQPGGSLRLSCAASGFNIHSTDIHWVRQAPGKGLEWVAYITPAGGATFYADSVKGRFTISADTSKNTAYLQMNSLRAEDTAVYYCARYPYWFAGYMDYWGQGTLVTVSS
VL: not shown
notes: VH/VL only; Fc-bearing IgG format with trastuzumab LC, HIS/FLAG-tagged, cell-free expressed; constant regions not tied; also called Antibody 49
B2: SRP1848-B11 (antibody, V domains shown)
VH: EVQLVESGGGLVQPGGSLRLSCAASGFNIGNNSIHWVRQAPGKGLEWVGDISPIDGFTDYADSVKGRFTISADTSKNTAYLQMNSLRAEDTAVYYCARGSWSWRAGYGYYLDYWGQGTLVTVSS
VL: not shown
notes: VH/VL only; Fc-bearing IgG format with trastuzumab LC, HIS/FLAG-tagged, cell-free expressed; constant regions not tied; also called Antibody 17
B3: SRP1848-E03 (antibody, V domains shown)
VH: B2 VH with V12A, N32Y, S33Y, D50G, S52T, I54R, M83V, R104P, Y107H, G108S
VL: not shown
notes: VH/VL only; Fc-bearing IgG format with trastuzumab LC, HIS/FLAG-tagged, cell-free expressed; constant regions not tied; also called Antibody 33
B4: SRP1848-C07 (antibody, V domains shown)
VH: B2 VH with G30R, N31K, N32Y, S52F, F57I, V64M, R104P, L111Q
VL: not shown
notes: VH/VL only; Fc-bearing IgG format with trastuzumab LC, HIS/FLAG-tagged, cell-free expressed; constant regions not tied; also called Antibody 22
B5: SRP1848-G03 (antibody, V domains shown)
VH: EVQLVESGGGLVQPGGSLRLSCAASGFNISTYYIHWVRQAPGKGLEWVGGITPSDGFTDYADSVKGRSTISADTSKNTAYLQMNSLRAEDTAVYYCARGSWSWPSGHGYFLDYWGQGTLVTVSS
VL: not shown
notes: VH/VL only; Fc-bearing IgG format with trastuzumab LC, HIS/FLAG-tagged, cell-free expressed; constant regions not tied; also called Antibody 48
B6: SRP1848-E02 (antibody, V domains shown)
VH: B2 VH with N31K, N32Y, D50E, S52Y, I54N, F57N, A105S
VL: not shown
notes: VH/VL only; Fc-bearing IgG format with trastuzumab LC, HIS/FLAG-tagged, cell-free expressed; constant regions not tied; also called Antibody 32
B7: SRP1848-C03 (antibody, V domains shown)
VH: B2 VH with N31V, N32Y, D50E, S52Y, F57N, S102A, A105S, G108S
VL: not shown
notes: VH/VL only; Fc-bearing IgG format with trastuzumab LC, HIS/FLAG-tagged, cell-free expressed; constant regions not tied; also called Antibody 19
B8: SRP1848-H01 (antibody, V domains shown)
VH: B2 VH with G30R, N31T, N32Q, V48I, S52F, F57I, R104P, A105S, Y107M, G108D
VL: not shown
notes: VH/VL only; Fc-bearing IgG format with trastuzumab LC, HIS/FLAG-tagged, cell-free expressed; constant regions not tied; also called Antibody 55
B9: SRP1848-F02 (antibody, V domains shown)
VH: B2 VH with G30R, N31T, N32Y, D50S, S52F, I54N, F57T, F68L, R104Q
VL: not shown
notes: VH/VL only; Fc-bearing IgG format with trastuzumab LC, HIS/FLAG-tagged, cell-free expressed; constant regions not tied; also called Antibody 38
B10: SRP1848-C01 (antibody, V domains shown)
VH: B2 VH with N32S, S33Y, D50G, I51V, S52T, I54N, F57Y, A79T, S102F, T118A
VL: not shown
notes: VH/VL only; Fc-bearing IgG format with trastuzumab LC, HIS/FLAG-tagged, cell-free expressed; constant regions not tied; also called Antibody 18
B11: SRP1848-F01 (antibody, V domains shown)
VH: B2 VH with G30R, N31T, N32Y, D50S, S52F, I54N, F57T, S102A, G108S
VL: not shown
notes: VH/VL only; Fc-bearing IgG format with trastuzumab LC, HIS/FLAG-tagged, cell-free expressed; constant regions not tied; also called Antibody 37
B12: SRP1848-D05 (antibody, V domains shown)
VH: B2 VH with G30S, N31I, N32S, S33Y, D50G, F57Y
VL: not shown
notes: VH/VL only; Fc-bearing IgG format with trastuzumab LC, HIS/FLAG-tagged, cell-free expressed; constant regions not tied; also called Antibody 27
B13: SRP1848-F09 (antibody, V domains shown)
VH: B2 VH with G30S, N32H, S33Y, D50G, I54L, F57Y, S100A, A105S, L111I
VL: not shown
notes: VH/VL only; Fc-bearing IgG format with trastuzumab LC, HIS/FLAG-tagged, cell-free expressed; constant regions not tied; also called Antibody 44

Changes are numbered by the printed parent chain.

T1 sequence (P35846 25-232 limits assumed): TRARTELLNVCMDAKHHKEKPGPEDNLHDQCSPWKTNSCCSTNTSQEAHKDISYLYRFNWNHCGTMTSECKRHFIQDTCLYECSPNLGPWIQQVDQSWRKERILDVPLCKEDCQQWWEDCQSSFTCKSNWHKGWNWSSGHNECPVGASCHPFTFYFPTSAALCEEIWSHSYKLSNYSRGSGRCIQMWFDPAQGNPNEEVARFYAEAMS

The first assay addresses T1, Murine folate receptor alpha (mouse, UniProt P35846 25-232).
T1 construct: Stably expressed on CHO cells (CHO-mFOLR1); also called mouse FOLR1; CHO-mFOLR1
The experiment in a line: FACS, CHO-mFOLR1 cells. (In general: In flow cytometry, cells or beads pass a laser one at a time.)
The molecule B1 showed a Bmax of 2000 MFI.

The molecule B2 had a Bmax of 1630 MFI.

For the molecule B3, the Bmax turned out to be 5940 MFI.

B4: the Bmax came to 3170 MFI.

In turn, B5 yielded a Bmax of 2220 MFI.

B6 showed a Bmax of 1470 MFI.

In the case of B7, the Bmax came to 3310 MFI.

The molecule B8 yielded a Bmax of 3950 MFI.

Molecule B9 came in with a Bmax of 2740 MFI.

In turn, B10 had a Bmax of 1370 MFI.

B11 gave a Bmax of 3750 MFI.

In turn, B12 registered a Bmax of 1360 MFI.

B13 had a Bmax of 1670 MFI.

The target in another assay is T2, Cynomolgus folate receptor alpha (cynomolgus monkey, UniProt P15328 25-234 (human entry)).
T2 construct: Stably expressed on CHO cells (CHO-cFOLR1); also called cynomolgus FOLR1; CHO-cFOLR1
T2 sequence (P15328 other isoform, or with tags, fused parts or gaps limits assumed): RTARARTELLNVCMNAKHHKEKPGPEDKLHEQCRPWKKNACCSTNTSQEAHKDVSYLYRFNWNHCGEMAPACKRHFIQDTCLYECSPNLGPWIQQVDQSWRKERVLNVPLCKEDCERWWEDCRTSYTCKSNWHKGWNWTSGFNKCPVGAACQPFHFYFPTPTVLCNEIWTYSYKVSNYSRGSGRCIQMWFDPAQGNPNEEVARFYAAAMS
The assay is described as follows: FACS, CHO-cFOLR1 cells.
The molecule B1 showed a Bmax of 12500 MFI.

Molecule B2 displayed a Bmax of 22900 MFI.

Regarding B3, the Bmax was determined as 17400 MFI.

B4 gave a Bmax of 18100 MFI.

Consider B5, for which the Bmax amounted to 19200 MFI.

With B6, the Bmax is 18700 MFI.

The molecule B7 had a Bmax of 25100 MFI.

In turn, B8 showed a Bmax of 17200 MFI.

Turning to B9, the Bmax turned out to be 14900 MFI.

In turn, B10 returned a Bmax of 25900 MFI.

Regarding B11, the Bmax is 21500 MFI.

With B12, the Bmax is 22200 MFI.

For B13, the Bmax came out at 24200 MFI.

In another assay the target is T3, Human folate receptor alpha (hFOLR1) (human, UniProt P15328 25-234).
T3 construct: Stably expressed on CHO cells (CHO-hFOLR1) for flow cytometry; endogenous on FOLR1-positive KB and Igrov1 cells in the killing assay; also called human FOLR1; FolRα
T3 sequence (P15328 25-234 limits assumed): as the sequence (P15328 other isoform, or with tags, fused parts or gaps limits assumed) above, with T2I, R4W, K37R, R117Q, P146A, Y171H counted along it
The assay is described as follows: FACS, CHO-hFOLR1 cells. The method, then:
CHO cells were transfected to stably express human (CHO-hFOLR1), cynomolgus (CHO-cFOLR1), or mouse (CHO-mFOLR1) target molecule FOLR1 on the cell surface. Parental CHO cells were used as a negative control to determine background binding levels. Parental CHO and stably transfected CHO-hFOLR1, CHO-cFOLR1, and CHO-mFOLR1 cells were cultured in Ham's F-12: high glucose DMEM (50:50) (Corning, Cellgro-Mediatech) supplemented with 10% heat-inactivated fetal bovine serum (Corning, Cellgro-Mediatech), 1% Penicillin/Streptomycin (Corning, Cellgro-Mediatech) and 2 mmol/L-glutamax (Life Technology).
A mixture of fluoresecent-labeled parental CHO cells and unlabeled CHO-hFOLRlcells were prepared as follows. Parental CHO cells were washed twice in PBS and incubated in PBS containing with 1 nM CellTrace™ Oregon Green488® (Life Technologies) at 37° C. for 30 minutes. Labeled parental CHO cells were then washed 2× with Ham's F-12 media and 2× with FACS buffer (PBS with 1% bovine serum albumin). Unlabeled CHO-hFOLR1 cells were similarly washed and prepared. Labeled parental CHO and unlabeled CHO-hFOLR1 cells were combined at 1:1 ratio and seeded at 50 μL per well (200,000 cells per well) in 96 well polypropylene plates. Cells were mixed with 50 μL of test antibodies (i.e., anti-FOLR1 variants) serially diluted in FACS buffer and incubated on ice for 60 mins. Cells were washed with FACS buffer and incubated on ice for 60 mins with 100 μL FACS buffer containing 2.5 μg/mL R-Phycoerythrin-conjugated goat anti-Human IgG (Jackson ImmunoResearch Laboratories, West Grove, Pa.). Cells were washed twice with FACS buffer, fixed in 2% paraformaldehyde in PBS (Santa Cruz Biotechnology; Dallas, Tex.) for 10 mins on ice in the dark, and analyzed using the BD LSR II Flow Cytometer (BD Biosciences; San Jose, Calif.). Data were analyzed using FlowJo® software (FlowJo, LLC; Ashland, Oreg.) to determine mean fluorescence intensities. Binding constants were calculated using the statistical software, GraphPad Prism (GraphPad Software; La Jolla, Calif.) using the nonlinear regression equation, one site-specific binding with Hill slope. Secondary antibody alone was used as a control, in addition to measuring non-specific antibody binding to CHO parental cells.
For the molecule B1, the Bmax came to 25200 MFI.

In turn, B2 had a Bmax of 28400 MFI.

On to B3, for which the Bmax is 26700 MFI.

Molecule B4 came in with a Bmax of 28800 MFI.

On to B5, for which the Bmax amounted to 26400 MFI.

B6 gave a Bmax of 23800 MFI.

Consider B7, for which the Bmax was determined as 29100 MFI.

Turning to B8, the Bmax was found to be 27000 MFI.

The molecule B9 returned a Bmax of 25700 MFI.

As to B10, the Bmax came out at 28500 MFI.

Consider B11, for which the Bmax was found to be 25200 MFI.

Turning to B12, the Bmax is 26700 MFI.

In turn, B13 displayed a Bmax of 23800 MFI.

The values are drawn from US20190233512A1 (SUTRO BIOPHARMA, published 2019).
